“And” between values parts separate entries of the source, which are not always exact repeats. Identical values can stand only once.

Common to all, as to conditions: both partners purified
For assay [1], the target named is T1, RBD-Fc (SARS-CoV-2, wild-type RBD (P0DTC2 …)).
T1 construct: also called RBD (immobilized as RBD-Fc on the chip)
Put plainly: SPR; […]; Biacore T200, PBS pH 7.4 with 0.005% P20, 25 °C; 1:1 binding model; […]. (In general: SPR reads the build-up and loss of mass on a sensor chip optically.)

The target in assay [2] is T2, biotinylated RBD (wild type) (SARS-CoV-2, wild-type RBD (P0DTC2 …)). Put plainly: SPR; […]; Biacore T200, PBS pH 7.4 with 0.005% P20, 25 °C; kinetic fit, 1:1 binding model; […].
In assay [3] the target is T2, biotinylated RBD (wild type). Put plainly: SPR; […]; Biacore T200, PBS pH 7.4 with 0.005% P20, 25 °C; […].
Assay [4] has as its target RBD-Fc (SARS-CoV-2, wild-type RBD (P0DTC2 …)). Description: SPR; Biacore T200, PBS pH 7.4 with 0.005% P20, 25 °C; […]; 1:1 binding model.
For the next assay, the target named is biotinylated RBD (SARS-CoV-2, wild-type RBD (P0DTC2 …)). Description: SPR; Biacore T200, PBS pH 7.4 with 0.005% P20, 25 °C; […].

B1: H11-A10 (VHH)
VHH: QVQLVESGGGLMQAGGSLRLSCAVSGRTFSTAAMGWFRQAPGKEREFVAAIRWSGGSAYYADSVKGRFTISRDKAKNTVYLQMNSLKYEDTAVYYCAGFSATRSLLSDYATWPYDYWGQGTQVTVSS
By Kd is commonly meant the free concentration of one partner at which half of the binding sites on the other are occupied at equilibrium, for simple one-to-one binding. One may read the koff as the first-order rate constant of dissociation. High values mean fast dissociation, low ones slow dissociation. The kon is the second-order rate constant of association. Read a high kon as fast association. For the molecule B1, in the assay with RBD-Fc [1], the Kd was 9.2 nM and 9.3 nM; the koff is 0.055 s⁻¹ and 0.047 s⁻¹; the kon is 5.9e+06 M⁻¹ s⁻¹ and 5e+06 M⁻¹ s⁻¹.

B2: H11-H4 Y104F (VHH)
VHH: QVQLVESGGGLMQAGGSLRLSCAVSGRTFSTAAMGWFRQAPGKEREFVAAIRWSGGSAYYADSVKGRFTISRDKAKNTVYLQMNSLKYEDTAVYYCAQTHYVSFLLSDYATWPYDYWGQGTQVTVSS
Take B2: in assay [2], the Kd was 37.4 nM and 33.2 nM; the koff is 0.072 s⁻¹ and 0.074 s⁻¹; the kon was 1.9e+06 M⁻¹ s⁻¹ and 2.2e+06 M⁻¹ s⁻¹.

B3: H11-B5 (VHH)
VHH: QVQLVESGGGLMQAGGSLRLSCAVSGRTFSTAAMGWFRQAPGKEREFVAAIRWSGGSAYYADSVKGRFTISRDKAKNTVYLQMNSLKYEDTAVYYCASYQATRSLLSDYATWPYDYWGQGTQVTVSS
For the molecule B3, in the assay with RBD-Fc [1], the Kd was 8.8 nM and 7.6 nM; the koff is 0.051 s⁻¹ and 0.046 s⁻¹; the kon was 5.8e+06 M⁻¹ s⁻¹ and 6.1e+06 M⁻¹ s⁻¹.

B4: H11-H4 Y104S (VHH)
VHH: QVQLVESGGGLMQAGGSLRLSCAVSGRTFSTAAMGWFRQAPGKEREFVAAIRWSGGSAYYADSVKGRFTISRDKAKNTVYLQMNSLKYEDTAVYYCAQTHYVSSLLSDYATWPYDYWGQGTQVTVSS
B4: in assay [3], binding was characterised by a dissociation constant (Kd) of 273 nM.

B5: H11-H4 Q98R H100E (D4 hybrid) (VHH)
VHH: QVQLVESGGGLMQAGGSLRLSCAVSGRTFSTAAMGWFRQAPGKEREFVAAIRWSGGSAYYADSVKGRFTISRDKAKNTVYLQMNSLKYEDTAVYYCARTEYVSYLLSDYATWPYDYWGQGTQVTVSS
Take B5: in assay [2], the Kd is 4.3 nM and 4.8 nM; the koff is 0.024 s⁻¹ and 0.025 s⁻¹; the kon was 5.5e+06 M⁻¹ s⁻¹ and 5.2e+06 M⁻¹ s⁻¹.

B6: nanobody H11-A10 (VHH)
VHH: QVQLVESGGGLMQAGGSLRLSCAVSGRTFSTAAMGWFRQAPGKEREFVAAIRWSGGSAYYADSVKGRFTISRDKAKNTVYLQMNSLKYEDTAVYYCAGFSATRSLLSDYATWPYDYWGQGTQVTVSS
For B6, the t1/2 with RBD-Fc [4] amounted to 14 s.

B7: nanobody H11-H4 R52E (VHH)
VHH: QVQLVESGGGLMQAGGSLRLSCAVSGRTFSTAAMGWFRQAPGKEREFVAAIEWSGGSAYYADSVKGRFTISRDKAKNTVYLQMNSLKYEDTAVYYCAQTHYVSYLLSDYATWPYDYWGQGTQVTVSS
Consider B7, for which the binding result with biotinylated RBD is listed as “no binding”.

B8: nanobody H11-B5 (VHH)
VHH: QVQLVESGGGLMQAGGSLRLSCAVSGRTFSTAAMGWFRQAPGKEREFVAAIRWSGGSAYYADSVKGRFTISRDKAKNTVYLQMNSLKYEDTAVYYCASYQATRSLLSDYATWPYDYWGQGTQVTVSS
In turn, B8 showed a t1/2 with RBD-Fc [4] of 14 s.

B9: nanobody H11-H4 R52A (VHH)
VHH: QVQLVESGGGLMQAGGSLRLSCAVSGRTFSTAAMGWFRQAPGKEREFVAAIAWSGGSAYYADSVKGRFTISRDKAKNTVYLQMNSLKYEDTAVYYCAQTHYVSYLLSDYATWPYDYWGQGTQVTVSS
In the case of B9, the binding result with biotinylated RBD is “no binding”.

B10: H11 V101Y R103S (VHH)
VHH: QVQLVESGGGLMQAGGSLRLSCAVSGRTFSTAAMGWFRQAPGKEREFVAAIRWSGGSAYYADSVKGRFTISRDKAKNTVYLQMNSLKYEDTAVYYCAQTRYTSSLLSDYATWPYDYWGQGTQVTVSS
B10 gave a Kd in assay [3] of 1700 nM. This lies in the single-digit micromolar range.

B11: H11-H6 (VHH)
VHH: QVQLVESGGGLMQAGGSLRLSCAVSGRTFSTAAMGWFRQAPGKEREFVAAIRWSGGSAYYADSVKGRFTISRDKAKNTVYLQMNSLKYEDTAVYYCAGSKITRSLLSDYATWPYDYWGQGTQVTVSS
With B11, in the assay with RBD-Fc [1], the Kd is 8.1 nM and 8.3 nM; the koff was 0.032 s⁻¹ and 0.025 s⁻¹; the kon is 3.9e+06 M⁻¹ s⁻¹ and 3e+06 M⁻¹ s⁻¹.

B12: nanobody H11-H6 (VHH)
VHH: QVQLVESGGGLMQAGGSLRLSCAVSGRTFSTAAMGWFRQAPGKEREFVAAIRWSGGSAYYADSVKGRFTISRDKAKNTVYLQMNSLKYEDTAVYYCAGSKITRSLLSDYATWPYDYWGQGTQVTVSS
B12 displayed a t1/2 with RBD-Fc [4] of 25 s.

B13: nanobody H11-H4 R52K (VHH)
VHH: QVQLVESGGGLMQAGGSLRLSCAVSGRTFSTAAMGWFRQAPGKEREFVAAIKWSGGSAYYADSVKGRFTISRDKAKNTVYLQMNSLKYEDTAVYYCAQTHYVSYLLSDYATWPYDYWGQGTQVTVSS
For the molecule B13, the binding result with biotinylated RBD is “no binding”.

B14: H11-H4 Y101A (VHH)
VHH: QVQLVESGGGLMQAGGSLRLSCAVSGRTFSTAAMGWFRQAPGKEREFVAAIRWSGGSAYYADSVKGRFTISRDKAKNTVYLQMNSLKYEDTAVYYCAQTHAVSYLLSDYATWPYDYWGQGTQVTVSS
On to B14, for which the affinity in assay [3], expressed as Kd, was 791 nM. That is a sub-micromolar value.

For the origin of these results see publication PMC9351521 (Proceedings of the National Academy of Sciences of the …, 2022).
